Experimental data from patent US20240002514A1 (IGM BIOSCIENCES, published 2024).

T1: recombinant human PD-L2 Fc chimera protein (Sino Biological, cat #10292-H02H) (human, UniProt Q9BQ51 20-219)
T1 construct: Fc part of the bought chimera not given
T1 sequence (looked up): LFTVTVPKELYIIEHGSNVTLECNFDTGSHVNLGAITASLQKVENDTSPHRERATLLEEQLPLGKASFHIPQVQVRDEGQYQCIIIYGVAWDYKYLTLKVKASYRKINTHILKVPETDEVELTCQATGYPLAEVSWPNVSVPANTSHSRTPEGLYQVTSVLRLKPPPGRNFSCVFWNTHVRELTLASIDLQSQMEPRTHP

B1: h3C5H3-h3C5L2 (humanized 3C5, IgG) (antibody, V domains shown)
VH: QVQLQESGPGLVKPSETLSITCTVSGFSLTSYDISWVRQPPGKGLEWLGVIWTGVGTNYNPSFKSRLTISKDTSKNQVSLKMSSLTAADTAVYYCVRDPYYYGMDYWGQGTLVTVSS
VL: DIQMTQSPSSLSASVGDRITITCRASQDISIWLSWYQQKPGKAPKLLIYKASNLHTGVPSRFSGSGSGTDFTLTISSLQPEDFATYYCLQSQSFPRTFGQGTKLEIKR
B2: h3C5H4-h3C5L2 (humanized 3C5, IgG) (antibody, V domains shown)
VH: QVQLQESGPGLVKPSETLSITCTVSGFSLTSYDISWIRQPPGKGLEWLGVIWTGVGTNYNPSFKSRLTISKDNSKNQVSLKMSSLTAADTAVYYCVRDPYYYGMDYWGQGTLVTVSS
VL: DIQMTQSPSSLSASVGDRITITCRASQDISIWLSWYQQKPGKAPKLLIYKASNLHTGVPSRFSGSGSGTDFTLTISSLQPEDFATYYCLQSQSFPRTFGQGTKLEIKR
B3: h3C5H2-h3C5L2 (humanized 3C5, IgG) (antibody, V domains shown)
VH: QVQLQESGPGLVKPSETLSLTCTVSGFSLTSYDISWIRQPPGKGLEWLGVIWTGVGTNYNPSLKSRVTISKDTSKNQFSLKLSSVTAADTAVYYCARDPYYYGMDYWGQGTLVTVSS
VL: DIQMTQSPSSLSASVGDRITITCRASQDISIWLSWYQQKPGKAPKLLIYKASNLHTGVPSRFSGSGSGTDFTLTISSLQPEDFATYYCLQSQSFPRTFGQGTKLEIKR
B4: h3C5H1-h3C5L1 (humanized 3C5, IgG) (antibody, V domains shown)
VH: QVQLQESGPGLVKPSETLSLTCTVSGFSLTSYDISWIRQPPGKGLEWIGVIWTGVGTNYNPSLKSRVTISVDTSKNQFSLKLSSVTAADTAVYYCARDPYYYGMDYWGQGTLVTVSS
VL: DIQMTQSPSSLSASVGDRVTITCRASQDISIWLSWYQQKPGKAPKLLIYKASNLHTGVPSRFSGSGSGTDFTLTISSLQPEDFATYYCLQSQSFPRTFGQGTKLEIKR
B5: 3C5-2G12 IgM antibody (antibody)
heavy: QVQLKESGPGLVAPSQSLSITCTVSGFSLTSYDISWVRQPPGKGLEWLGVIWTGVGTNYNSAFMSRLSISKDNSKSQVFLKMNSLQTDDTAMYYCVRDPYYYGMDYWGQGTSVTVSSGSASAPTLFPLVSCENSPSDTSSVAVGCLAQDFLPDSITFSWKYKNNSDISSTRGFPSVLRGGKYAATSQVLLPSKDVMQGTDEHVVCKVQHPNGNKEKNVPLPVIAELPPKVSVFVPPRDGFFGNPRKSKLICQATGFSPRQIQVSWLREGKQVGSGVTTDQVQAEAKESGPTTYKVTSTLTIKESDWLSQSMFTCRVDHRGLTFQQNASSMCVPDQDTAIRVFAIPPSFASIFLTKSTKLTCLVTDLTTYDSVTISWTRQNGEAVKTHTNISESHPNATFSAVGEASICEDDWNSGERFTCTVTHTDLPSPLKQTISRPKGVALHRPDVYLLPPAREQLNLRESATITCLVTGFSPADVFVQWMQRGQPLSPEKYVTSAPMPEPQAPGRYFAHSILTVSEEEWNTGETYTCVVAHEALPNRVTERTVDKSTGKPTLYNVSLVMSDTAGTCY
light: DIQMNQSPSSLSASLGDTITITCRASQDISIWLSWYQQKPGNIPELLIYKASNLHTGVPPRFSGSGSGTDFTLTISSLQPEDIATYYCLQSQSFPRTFGGGTKLEIKRTVAAPSVFIFPPSDEQLKSGTASVVCLLNNFYPREAKVQWKVDNALQSGNSQESVTEQDSKDSTYSLSSTLTLSKADYEKHKVYACEVTHQGLSSPVTKSFNRGEC
B6: 3C5-2G12 IgG1 antibody (antibody)
heavy: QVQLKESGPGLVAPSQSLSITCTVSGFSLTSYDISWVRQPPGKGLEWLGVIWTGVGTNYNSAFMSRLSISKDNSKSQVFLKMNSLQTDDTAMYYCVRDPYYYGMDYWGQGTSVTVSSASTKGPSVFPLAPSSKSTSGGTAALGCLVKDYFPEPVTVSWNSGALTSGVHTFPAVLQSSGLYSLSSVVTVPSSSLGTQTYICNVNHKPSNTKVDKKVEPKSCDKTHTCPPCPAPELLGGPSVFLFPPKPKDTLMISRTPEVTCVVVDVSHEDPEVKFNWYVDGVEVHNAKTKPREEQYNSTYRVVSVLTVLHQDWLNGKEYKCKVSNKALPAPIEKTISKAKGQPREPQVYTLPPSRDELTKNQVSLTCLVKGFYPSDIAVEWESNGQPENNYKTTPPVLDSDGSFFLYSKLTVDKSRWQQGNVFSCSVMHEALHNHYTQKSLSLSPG
light: DIQMNQSPSSLSASLGDTITITCRASQDISIWLSWYQQKPGNIPELLIYKASNLHTGVPPRFSGSGSGTDFTLTISSLQPEDIATYYCLQSQSFPRTFGGGTKLEIKRTVAAPSVFIFPPSDEQLKSGTASVVCLLNNFYPREAKVQWKVDNALQSGNSQESVTEQDSKDSTYSLSSTLTLSKADYEKHKVYACEVTHQGLSSPVTKSFNRGEC
notes: also called 3C5 (IgG); 3C5 antibody (IgG format)
B7: 3C5-2G12 IgM + J antibody (antibody)
heavy: QVQLKESGPGLVAPSQSLSITCTVSGFSLTSYDISWVRQPPGKGLEWLGVIWTGVGTNYNSAFMSRLSISKDNSKSQVFLKMNSLQTDDTAMYYCVRDPYYYGMDYWGQGTSVTVSSGSASAPTLFPLVSCENSPSDTSSVAVGCLAQDFLPDSITFSWKYKNNSDISSTRGFPSVLRGGKYAATSQVLLPSKDVMQGTDEHVVCKVQHPNGNKEKNVPLPVIAELPPKVSVFVPPRDGFFGNPRKSKLICQATGFSPRQIQVSWLREGKQVGSGVTTDQVQAEAKESGPTTYKVTSTLTIKESDWLSQSMFTCRVDHRGLTFQQNASSMCVPDQDTAIRVFAIPPSFASIFLTKSTKLTCLVTDLTTYDSVTISWTRQNGEAVKTHTNISESHPNATFSAVGEASICEDDWNSGERFTCTVTHTDLPSPLKQTISRPKGVALHRPDVYLLPPAREQLNLRESATITCLVTGFSPADVFVQWMQRGQPLSPEKYVTSAPMPEPQAPGRYFAHSILTVSEEEWNTGETYTCVVAHEALPNRVTERTVDKSTGKPTLYNVSLVMSDTAGTCY
light: DIQMNQSPSSLSASLGDTITITCRASQDISIWLSWYQQKPGNIPELLIYKASNLHTGVPPRFSGSGSGTDFTLTISSLQPEDIATYYCLQSQSFPRTFGGGTKLEIKRTVAAPSVFIFPPSDEQLKSGTASVVCLLNNFYPREAKVQWKVDNALQSGNSQESVTEQDSKDSTYSLSSTLTLSKADYEKHKVYACEVTHQGLSSPVTKSFNRGEC
chain: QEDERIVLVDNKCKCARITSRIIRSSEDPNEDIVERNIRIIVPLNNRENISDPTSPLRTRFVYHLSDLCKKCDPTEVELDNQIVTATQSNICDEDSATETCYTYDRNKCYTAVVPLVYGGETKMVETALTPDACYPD
notes: also called 3C5.2G12 IgM+wtJ; 3C5.2G12 IgM+J chain

Tests used:
[1] = biological target: T2, human PD-L1 expressed on the cell surface (CHO cells expressing human PD-L1; Promega CS187103 / 187103 cells) (human, UniProt Q9NZQ7 19-290); assay: cell-based or functional assay
T2 sequence (Q9NZQ7 19-290): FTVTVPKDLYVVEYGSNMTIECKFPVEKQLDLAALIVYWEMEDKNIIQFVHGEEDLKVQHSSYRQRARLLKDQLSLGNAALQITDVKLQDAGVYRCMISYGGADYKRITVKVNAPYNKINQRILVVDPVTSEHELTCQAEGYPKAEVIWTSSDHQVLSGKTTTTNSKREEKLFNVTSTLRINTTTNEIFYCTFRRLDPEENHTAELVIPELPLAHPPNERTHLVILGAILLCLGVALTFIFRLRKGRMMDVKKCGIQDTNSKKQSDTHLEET

[2] = biological target: T3, recombinant mouse PD-L1 Fc chimera (Sino Biologicals, cat #50010-M02H) (mouse, UniProt Q9EP73 19-238); assay: ELISA on directly coated mouse PD-L1 Fc chimera (1 ug/mL), detection anti-human kappa light chain-HRP
T3 construct: Fc part of the bought chimera not given
T3 sequence (Q9EP73 19-238, stated change not applied): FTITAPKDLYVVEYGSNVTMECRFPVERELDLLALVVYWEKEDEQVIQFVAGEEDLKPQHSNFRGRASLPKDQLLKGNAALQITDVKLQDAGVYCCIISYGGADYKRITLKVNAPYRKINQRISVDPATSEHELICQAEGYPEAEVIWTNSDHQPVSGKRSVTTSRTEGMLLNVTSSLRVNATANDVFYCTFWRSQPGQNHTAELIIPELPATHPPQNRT
Method: (§1) Recombinant human PD-L1 Fc chimera (Sino Biological, cat #10084-H02H), recombinant cynomolgous monkey PD-L1 Fc chimera (Sino Biological, cat #90251-C02H), recombinant mouse PD-L1 Fc chimera (Sino Biologicals, cat #50010-M02H) and recombinant human PD-L2 Fc chimera protein (Sino Biological, cat #10292-H02H) were coated directly onto the ELISA plates at 1 ug/mL by overnight incubation at 4° C. The plates were washed 3× with PBS 0.05% TWEEN® and dried by tapping several times on paper towels. All the plates were blocked with 200 uL of 1% milk for 1 hr at RT. […] Fifty μL of the diluted antibodies were added to the respective wells in all the plates. Positive control antibody (mouse anti-human PD-L1, 29E.2A3, (BioLegend, cat #329702) and its isotype control mouse IgG2b k (BioLegend, cat #400302) were serially diluted 3-fold in 1% milk starting at 3 ug/mL to 0.1 ng/mL and 50 uL of the titrated antibodies were added to their respective plates/wells. Similarly rat anti mouse PD-L1 (BioLegend, cat #124302) and rat IgG2b isotype (BioLegend, cat #400622), anti-human PD-L2 (BioLegend, cat #345502) with mouse IgG1 isotype (BioLegend, cat #4011402) were titrated as above and added to its respective plates/wells. The plates were incubated for 1 hr at RT. […] For the control wells, appropriate secondary antibodies, goat anti mouse HRP (Southern Biotech, cat #1033) and mouse anti rat HRP (Southern Biotech, cat #3070-05), were diluted and incubated as above. After repeating the wash and drying step, the plates were developed for 20-30 min with 50 uL TMB substrate (BD OPTEIA®, cat #555214). The reaction was stopped with 50 uL of 2N H2SO4 and absorbance at 450 nm was read on a SPECTRAMAX® Gemini™ spectrophotometer.

[3] = biological target: T2, human PD-L1 expressed on the cell …; assay: cell-based or functional assay; remark: listed apart in the source
[4] = biological target: T1, recombinant human PD-L2 Fc chimera …; assay: ELISA on directly coated human PD-L2 Fc chimera (1 ug/mL), detection anti-human kappa light chain-HRP
Method: as §1

[5] = biological target: T2, human PD-L1 expressed on the cell …; assay: cell-based or functional assay; remark: listed apart in the source
[6] = biological target: T4, recombinant cynomolgus monkey PD-L1 Fc chimera (Sino Biological, cat #90251-C02H) (cynomolgus monkey, UniProt G7PSE7 19-239); assay: ELISA on directly coated cynomolgus PD-L1 Fc chimera (1 ug/mL), detection anti-human kappa light chain-HRP
T4 construct: also called Cyno PD-L1; Fc part of the bought chimera not given
T4 sequence (G7PSE7 entry or part of it C02H C02H): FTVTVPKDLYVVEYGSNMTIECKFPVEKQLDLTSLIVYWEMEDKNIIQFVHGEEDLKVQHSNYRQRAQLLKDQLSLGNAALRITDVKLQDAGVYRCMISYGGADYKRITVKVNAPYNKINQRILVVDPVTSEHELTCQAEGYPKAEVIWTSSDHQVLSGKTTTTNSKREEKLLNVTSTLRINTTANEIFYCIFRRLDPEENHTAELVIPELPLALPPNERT
Method: as §1

[7] = biological target: T2, human PD-L1 expressed on the cell …; assay: flow cytometry competition on CHO cells expressing human PD-L1; cells pre-incubated with unlabeled antibody, then Alexa Fluor 647-labeled 3C5 (1 µg/mL)
Method: (§2) Antibody cross-blocking analysis was conducted by the following method. […] Fluorescent staining intensities were determined using the FACSCalibur™ system. Competition of by the identical antibody was a positive control while the lack of competition by the irrelevant antibody was a negative control.

[8] = biological target: T2, human PD-L1 expressed on the cell …; assay: flow cytometry competition on CHO cells expressing human PD-L1; cells pre-incubated with unlabeled antibody, then Alexa Fluor 647-labeled S70 (1 µg/mL)
Method: as §2

| Binder | EC50, PD-1/PD-L1 blockade (PDL1 Blockade, luciferase signal) [1] [nM] | binding result [2] | EC50 in the PD-1/PD-L1 blockade assay (luciferase reporter activity, 4 parameter curve fit) [3] [nM] | binding result [4] | EC50, PD-1/PD-L1 blockade (% PDL1 Blockade, NFAT-luciferase reporter) [5] [nM] | EC50 (read off the curve) [6] [ng/mL] | IC50 (read off the curve) [7] [ng/mL] | IC50 (read off the curve) [8] [ng/mL] |
| --- | --- | --- | --- | --- | --- | --- | --- | --- |
| B1 | 0.214 |  |  |  |  |  |  |  |
| B2 | 0.296 |  |  |  |  |  |  |  |
| B3 | 0.381 |  |  |  |  |  |  |  |
| B4 | 0.221 |  |  |  |  |  |  |  |
| B5 | 0.094 | no binding (tested: 3 ug/mL) | 61000 | no binding (tested: 3 ug/mL) | 0.061 | ~7 |  |  |
| B6 | 0.251 | no binding (tested: 3 ug/mL) |  | no binding (tested: 3 ug/mL) | 0.21 | ~6 | ~10 | ~20 |
| B7 |  | no binding (tested: 3 ug/mL) | 96000 | no binding (tested: 3 ug/mL) | 0.096 | ~8 |  |  |
